Results on one molecule are retold here after PMC6778148.

The target in this assay is fluorescein-labelled divalent stargazin-derived peptide ligand. Briefly: fluorescence polarisation; direct titration: 50 nM fluorescein-labelled stargazin ligand (divalent or monovalent) against increasing concentrations of PDZ domains; apparent KD. (Fluorescence polarisation rises when a labelled molecule tumbles more slowly, as on binding a larger partner.)

B1: SAP102 tandem PDZ domains 1 and 2 (SAP102-12), from pET-NO (domain or fragment)
chain: FKYEEIVLERGNSGLGFSIAGGIDNPHVPDDPGIFITKIIPGGAAAMDGRLGVNDCVLRVNEVDVSEVVHSRAVEALKEAGPVVRLVVRRRQPPPETIMEVNLLKGPKGLGFSIAGGIGNQHIPGDNSIYITKIIEGGAAQKDGRLQIGDRLLAVNNTNLQDVRHEEAVASLKNTSDMVYLKVAKPGSL
As for B1, the Kd was determined as 175 nM.
